Values quoted from earlier work in patent US20130136753A1, “PAXILLIN AS A THERAPEUTIC OR DIAGNOSTIC MARKER FOR CANCER” (UNIVERSITY OF ROCHESTER, priority 2010, published 2013).

B1: Aptamer S6: RNA aptamer binding HER-2 overexpressing breast cancer cells (nucleic acid)
chain: GGGAGAUACCAGCUUAUUCAAUUUGGAUGGGGAGAUCCGUUGAGUAAGCGGGCGUGUCUCUCUGCCGCCUUGCUAUGGGGAGAUAGUAAGUGCAAUCU
modifications: listed as RNA, chemistry not given here
B2: Aptamer aptTOV1: aptamer binding ovarian clear cell carcinoma cell line TOV-21G (nucleic acid)
chain: UCCAGAGUGACGCAGCAGAUCUGUGUAGGAUCGCAGUGUAGUGGACAUUUGAUACGACUGGCUCGACACGGUGGCUUA
modifications: listed as RNA, chemistry not given here

Tests used:
[1] = tested on: HER-2 overexpressing breast cancer cells; settings: cited from earlier work
[2] = tested on: ovarian clear cell carcinoma cell line TOV-21G; settings: cited from earlier work

Molecule | binding to HER-2 overexpressing breast cancer cells [1] | binding to TOV-21G cells [2]
B1 | binds specifically | –
B2 | – | high affinity
